Results from patent US20210301026A1 (ULTRAHUMAN TWELVE, published 2021).
Numbering of substitutions follows the chain as printed. In names and notes the source's numbering stands.

T1: monomeric cynomolgus monkey CSF1R ectodomain protein (cynomolgus monkey, UniProt P07333 20-517 (human entry))
T1 construct: also called monomeric cyno CSF1R; Cyno CSF1R
T1 chain: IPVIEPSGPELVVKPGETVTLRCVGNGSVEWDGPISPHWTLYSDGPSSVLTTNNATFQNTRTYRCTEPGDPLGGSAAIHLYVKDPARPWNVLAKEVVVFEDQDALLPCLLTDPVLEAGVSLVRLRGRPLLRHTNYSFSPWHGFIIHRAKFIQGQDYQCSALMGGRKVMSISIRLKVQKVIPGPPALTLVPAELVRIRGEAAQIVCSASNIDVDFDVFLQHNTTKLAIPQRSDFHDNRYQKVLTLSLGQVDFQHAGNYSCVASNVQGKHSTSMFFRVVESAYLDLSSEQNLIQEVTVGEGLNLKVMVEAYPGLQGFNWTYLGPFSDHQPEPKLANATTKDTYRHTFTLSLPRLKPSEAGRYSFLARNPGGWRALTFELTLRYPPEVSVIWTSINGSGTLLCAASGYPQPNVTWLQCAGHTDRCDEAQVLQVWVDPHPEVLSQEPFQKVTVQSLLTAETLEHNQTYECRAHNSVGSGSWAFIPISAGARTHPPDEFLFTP

B1: MH12 (antibody, human IgG4, V domains shown)
VH: QVQLVQSGAEVKKPGSSVKVSCKASGYTFSSNYMIWVRQAPGQGLEWMGDINPYNGGANYAQKFQGRVTITADESTSTAYMELSSLRSEDTAVYYCAREGPYFSNLYVMDYWGQGTLVTVSS
VL: EIVLTQSPATLSLSPGERATLSCRASQSVSYEGENYLNWYQQKPGQAPRSLIYAASDRATGIPARFSGSGSGTDFTLTISSPEPEDFAVYYCQLSNEDLLTFGGGTKVEIK
notes: Deimmunized MH5 derivative, human IgG4(S228P)/Ckappa IgG; also called mAb-4
B2: MH16 (antibody, human IgG4, V domains shown)
VH: B1 VH with N32A
VL: B1 VL
notes: Deimmunized MH5 derivative, human IgG4(S228P)/Ckappa IgG; also called mAb-5
B3: MH20 (antibody, human IgG4, V domains shown)
VH: B1 VH with N32S
VL: B1 VL
notes: Deimmunized MH5 derivative, human IgG4(S228P)/Ckappa IgG
B4: MH21 (antibody, human IgG4, V domains shown)
VH: B1 VH with N32S
VL: B1 VL with S50L, D57N
notes: as for B3
B5: MH25 (antibody, human IgG4, V domains shown)
VH: B1 VH with N32H
VL: B1 VL with S50L, D57N
notes: as for B3
B6: MH29 (antibody, human IgG4, V domains shown)
VH: B1 VH with Q114R
VL: B1 VL with S50L, D57N
notes: as for B3
B7: MH37 (antibody, human IgG4, V domains shown)
VH: B1 VH with N32S, Q114R
VL: B1 VL with S50L, D57N
notes: as for B3
B8: MH40 (antibody, human IgG4, V domains shown)
VH: B1 VH with N32H, Q114R
VL: B1 VL
notes: as for B3
B9: MH41 (antibody, human IgG4, V domains shown)
VH: B1 VH with N32H, Q114R
VL: B1 VL with S50L, D57N
notes: Deimmunized MH5 derivative, human IgG4(S228P)/Ckappa IgG; also called MN41
B10: MH17 (antibody, human IgG4, V domains shown)
VH: B1 VH with N32A
VL: B1 VL with S50L, D57N
notes: as for B3
B11: 29A03 (antibody, human IgG4, V domains shown)
VH: B1 VH with N59T, A61N, G100P
VL: B1 VL with S30E, S50L, D57N, P82L, E97Q
notes: Library-derived clone, tested as human IgG4(S228P)/Ckappa IgG; framework residue limits counted on the grafts
B12: 29B07 (antibody, human IgG4, V domains shown)
VH: B1 VH with S30T, N32Y, M34I, N59T, G100P
VL: B1 VL with S30E, E34D, S50L, D57N, P82L, E97Q
notes: as for B11
B13: 30D02 (antibody, human IgG4, V domains shown)
VH: B1 VH with N32Y, A58T, N59T
VL: B1 VL with S30E, E32Q, S50L, D57N, P82L, E97Q
notes: as for B11
B14: MH4 (antibody, V domains shown)
VH: B1 VH with N32Y
VL: B1 VL with E32Q, N38A, S50L, A54D, D57N, P82L, E97Q
notes: Designer clone, human IgG4(S228P)/Ckappa IgG
B15: MH6 (antibody, V domains shown)
VH: B1 VH with N32Y
VL: B1 VL with N38A, S50L, D57N, P82L, E97Q
notes: as for B14
B16: MH10 (antibody, human IgG4, V domains shown)
VH: B1 VH
VL: B1 VL with L51A, D57N
notes: as for B3
B17: MH11 (antibody, human IgG4, V domains shown)
VH: B1 VH
VL: B1 VL with S50A, L51A, D57N
notes: as for B3
B18: MH24 (antibody, human IgG4, V domains shown)
VH: B1 VH with N32H
VL: B1 VL
notes: as for B3
B19: MH32 (antibody, human IgG4, V domains shown)
VH: B1 VH with N32A, Q114R
VL: B1 VL
notes: Deimmunized MH5 derivative, human IgG4(S228P)/Ckappa IgG; also called MN32

Biological target: T2, human insulin (human, UniProt P01308 25-54; P01308 90-110, limits assumed)
T2 construct: Coated antigen of the polyreactivity ('PK-risk indicator') ELISA
T2 sequence (P01308 25-54 limits assumed, chain 1 of 2): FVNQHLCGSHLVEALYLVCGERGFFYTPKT
T2 sequence (P01308 90-110 limits assumed, chain 2 of 2): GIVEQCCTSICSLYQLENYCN
Assay: ELISA on human insulin (development risk, polyreactivity), binding score

Binder	binding result
B1	no binding
B2	no binding
B3	no binding
B4	no binding
B5	no binding
B6	no binding
B7	no binding
B8	no binding
B9	no binding
B10	no binding

Biological target: T1, monomeric cynomolgus monkey CSF1R …
Assay: SPR Biacore, IgG captured, monomeric CSF1R analyte
Procedure: (§1) Affinity (KD) of purified IgGs was determined via SPR with antigen in-solution on a Biacore 3000 (GE). A mouse anti-human antibody (CH1 specific) was immobilized on a CM5 Sensor Chip to a level of 2000 RU in acetate buffer at pH 4.5 using amine coupling following the Wizard instructions for two channels. One channel was used for background signal correction. The standard running buffer HBS-EP pH 7.4 was used. Regeneration was performed with a single injection of 10 μl of 10 mM Glycine at pH 1.5 at 20 μl/minute. IgG samples were injected for 2 minutes at 50 nM at 30 μl/min followed by and off-rate of 60 seconds. The monomeric ectodomain protein (human CSF1R or cynomolgus monkey CSF1R) was injected in two fold serial dilutions from 100 nM down to 3.1 nM, for 2 minutes at 30 μl/min followed by an off-rate of 300 seconds. The obtained sensorgrams were analysed using the Biacore 3000 evaluation (BIAevaluation) software. The KD was calculated by simultaneous fitting of the association and dissociation phases to a 1:1 Langmuir binding model.
(§2) Biacore analyses of binding affinity were performed for all IgGs to solution-phase, monomeric human and cyno CSF1R proteins (Table 6). […] Affinity differentials of less than 3-fold between human and cyno target orthologs are highly beneficial in pre-clinical drug development analyses as they allow more accurate design and interpretation of e.g. monkey safety, PK and PD modelling experiments.

Binder	Kd [nM]	koff [s⁻¹]	kon [M⁻¹ s⁻¹]
B11	1.2	0.00032	270000
B12	0.79	0.00025	310000
B13	1.7	0.00032	190000
B14	2.9	0.0014	470000
B15	1.3	0.00064	510000

Biological target: T3, monomeric human CSF1R ectodomain protein (human, UniProt P07333 20-517)
T3 construct: also called biotinylated monomeric human CSF1R
Assay: SPR Biacore, IgG captured, monomeric CSF1R analyte
Procedure: as §1, §2

Binder	Kd [nM]	koff [s⁻¹]	kon [M⁻¹ s⁻¹]
B11	0.39	0.0006	1.6e+06
B12	0.34	0.00051	1.5e+06
B13	0.48	0.00049	1e+06
B14	1.9	0.0024	1.3e+06
B15	0.88	0.0012	1.3e+06

Biological target: T1, monomeric cynomolgus monkey CSF1R …
Assay: SPR Biacore, IgG captured, monomeric CSF1R analyte
Remark: another data set of the same source
Procedure: as §1

Binder	Kd [nM]	koff [s⁻¹]	kon [M⁻¹ s⁻¹]	fold of the affinity of hu0301 [fold]
B16	1.07	0.000754	705000	–
B17	1.29	0.00103	802000	–
B1	0.557	0.000726	1.3e+06	≤ 2
B2	0.785	0.00075	956000	≤ 2
B3	1.24	0.00134	1.08e+06	–
B4	1.84	0.00137	746000	–
B18	0.777	0.000833	1.07e+06	≤ 2
B5	1.03	0.000758	733000	–
B6	0.913	0.000813	891000	–
B19	0.979	0.00103	1.05e+06	–
B8	0.948	0.00101	1.06e+06	–
B9	1.46	0.000972	666000	–
B10	1.33	0.000906	683000	–

Biological target: T3, monomeric human CSF1R ectodomain protein
Assay: SPR Biacore, IgG captured, monomeric CSF1R analyte
Remark: another data set of the same source
Procedure: as §1

Binder	Kd [nM]	koff [s⁻¹]	kon [M⁻¹ s⁻¹]	fold of the affinity of hu0301 [fold]
B16	0.624	0.00088	1.41e+06	–
B17	0.776	0.00119	1.53e+06	–
B1	0.342	0.000832	2.43e+06	≤ 2
B2	0.444	0.000897	2.02e+06	≤ 2
B3	0.709	0.00177	2.49e+06	–
B4	1.23	0.00189	1.54e+06	–
B18	0.397	0.000976	2.46e+06	≤ 2
B5	0.634	0.000921	1.45e+06	–
B6	0.562	0.000961	1.71e+06	–
B19	0.62	0.00127	2.04e+06	–
B8	0.553	0.00113	2.05e+06	–
B9	0.851	0.00109	1.28e+06	–
B10	0.834	0.00112	1.35e+06	–

Biological target: T3, monomeric human CSF1R ectodomain protein
Assay: AlphaScreen competition with mu0301 IgG4(S228P) for biotinylated monomeric human CSF1R
Procedure: The AlphaScreen assay (Perkin Elmer) was performed in a 25 μl final volume in 384-well white microtiter plates (Greiner). The reaction buffer contained 1×PBS pH 7.3 (Oxoid, Cat. nr. BR0014G) and 0.05% (v/v) Tween® 20 (Sigma, Cat. nr. P9416). Purified IgG samples were titrated in three fold serial dilutions starting at 500 nM final concentration and incubated with biotinylated human CSF1R for 20 minutes at room temperature. […] The emission of light was measured in the EnVision multilabel plate reader (Perkin Elmer) and analysed using the EnVision manager software. Values were reported as Counts Per Second (CPS) and corrected for crosstalk. The EC50 values were calculated using the […] in GraphPad Prism software (GraphPad Software, La Jolla, Calif.).

Binder	IC50 [nM]	fold lower epitope competition than hu0301 [fold]
B11	4.6	–
B12	3.86	–
B13	3.92	–
B14	18.9	> 2
B15	7.74	> 2
